Measured values taken from article PMC9854251.
Numbering of substitutions follows the chain as printed. Names may count otherwise.

Substrate: Nc1ncnc2c1ncn2[C@@H]1O[C@H](COP(=O)(O)NCCc2c[nH]c3ccccc23)[C@@H](O)[C@H]1O
Assay: Steady-state kinetics assay
Format: biochemical, human
Conditions: other: steady-state 25 °C, pH 7.2

B1: hHINT1 Q62A (Homo sapiens; Q62A) (protein)
chain: MADEIAKAQVARPGGDTIFGKIIRKEIPAKIIFEDDRCLAFHDISPQAPTHFLVIPKKHISAISVAEDDDESLLGHLMIVGKKCAADLGLNKGYRMVVNEGSDGGQSVYHVHLHVLGGRQMHWPPG
hHINT1 Q62A
  Km: 0.015 ± 0.003 µM
  kcat: 0.45 ± 0.02 s⁻¹
  kcat/Km: 2.8e+07 ± 4e+06 M⁻¹ s⁻¹

B2: hHINT1 Q62R (Homo sapiens; Q62R) (protein)
chain: B1 chain with A62R
hHINT1 Q62R
  Km: 0.136 ± 0.03 µM
  kcat: 1.4 ± 0.09 s⁻¹
  kcat/Km: 1.1e+07 ± 2.4e+06 M⁻¹ s⁻¹

B3: hHINT2 WT (Homo sapiens) (protein)
chain: GNEVAKAQQATPGGAAPTIFSRILDKSLPADILYEDQQCLVFRDVAPQAPVHFLVIPKKPIPRISQAEEEDQQLLGHLLLVAKQTAKAEGLGDGYRLVINDGKLGAQSVYHLHIHVLGGRQLQWPPG
hHINT2 WT
  Km: 0.91 ± 0.098 µM
  kcat: 5.77 ± 0.34 s⁻¹
  kcat/Km: 6.3e+06 ± 1e+06 M⁻¹ s⁻¹

B4: hHINT2 R99A (Homo sapiens; R99A) (protein)
chain: B3 chain with R63A
hHINT2 R99A
  Km: 0.683 ± 0.042 µM
  kcat: 2.65 ± 0.19 s⁻¹
  kcat/Km: 3.88e+06 ± 810000 M⁻¹ s⁻¹

B5: hHINT2 R99Q (Homo sapiens; R99Q) (protein)
chain: B3 chain with R63Q
hHINT2 R99Q
  Km: 0.84 ± 0.155 µM
  kcat: 6.01 ± 0.26 s⁻¹
  kcat/Km: 7.2e+06 ± 1.1e+06 M⁻¹ s⁻¹
